Test results taken from doi:10.1101/2025.08.06.668938 (bioRxiv, 2025).

B1: adalimumab VH paired with LICHEN-3 light sequence (pairing_CDRs) (antibody, V domains shown)
VH: not shown
VL: DIVMTQTPPSSPVTLGQPASISCRASQGIRNYLAWYQQKPGQSPKLLISAASTLQSGVPSRFSGSGSGTDFTLKISSLQPEDVATYYCQRYNRAPYTFGQGTKLEIK
notes: as the VH of m3 (native VH of adalimumab); Whole antibody; also called LICHEN-3 (adalimumab)
B2: adalimumab VH paired with LICHEN-5 light sequence (pairing_CDRs) (antibody, V domains shown)
VH: not shown
VL: EIVLTQSPATLSLSPGERATLSCRASQGIRNYLAWYQQKPGQAPRLLIYAASTLQSGIPARFSGSGSGTDFTLTISSLEPEDFAVYYCQRYNRAPYTFGQGTKLEIK
notes: as the VH of m3 (native VH of adalimumab); Whole antibody; also called LICHEN-5 (adalimumab)
B3: adalimumab VH paired with LICHEN-2 light sequence (pairing_CDRs) (antibody, V domains shown)
VH: not shown
VL: DIQMTQSPSFVSASVGDRVTITCRASQGIRNYLAWYQQKPGKAPEVLISAASTLQSGVPSRFSGSGSGTEFTLTITNLQPEDSATYFCQRYNRAPYTFGQGTRLDIK
notes: as the VH of m3 (native VH of adalimumab); Whole antibody; also called LICHEN-2 (adalimumab)
B4: adalimumab VH paired with germline IGKV7-3*01/IGKJ1*01 with the adalimumab light CDRs grafted (antibody, V domains shown)
VH: not shown
VL: DIVLTQSPASLAVSPGQRATITCRASQGIRNYLAWYQQKPGQPPKLLIYAASTLQSGVPARFSGSGSGTDFTLTINPVEANDTANYYCQRYNRAPYTFGQGTKVEIK
notes: as the VH of m3 (native VH of adalimumab); germline V-gene IGKV7-3*01 combined with J-gene IGKJ1*01, all three light CDRs of adalimumab (Kabat definition) grafted; Whole antibody; also called Germline-3+ (adalimumab)
B5: pembrolizumab (antibody, V domains shown)
VH: QVQLVQSGVEVKKPGASVKVSCKASGYTFTNYYMYWVRQAPGQGLEWMGGINPSNGGTNFNEKFKNRVTLTTDSSTTTAYMELKSLQFDDTAVYYCARRDYRFDMGFDYWGQGTTVTVSS
VL: EIVLTQSPATLSLSPGERATLSCRASKGVSTSGYSYLHWYQQKPGQAPRLLIYLASYLESGVPARFSGSGSGTDFTLTISSLEPEDFAVYYCQHSRDLPLTFGGGTKVEIK
notes: native VH of the therapeutic pembrolizumab (humanised, IGHV1); Whole antibody (detected by anti-human IgG Fc); also called therapeutic; positive control (pembrolizumab panels)
B6: pembrolizumab VH paired with germline IGKV3-20*01/IGKJ1*01 with the pembrolizumab light CDRs grafted (antibody, V domains shown)
VH: QVQLVQSGVEVKKPGASVKVSCKASGYTFTNYYMYWVRQAPGQGLEWMGGINPSNGGTNFNEKFKNRVTLTTDSSTTTAYMELKSLQFDDTAVYYCARRDYRFDMGFDYWGQGTTVTVSS
VL: EIVLTQSPGTLSLSPGERATLSCRASKGVSTSGYSYLHWYQQKPGQAPRLLIYLASYLESGIPDRFSGSGSGTDFTLTISRLEPEDFAVYYCQHSRDLPLTFGQGTKVEIK
notes: as the VH of m13 (native VH of pembrolizumab); germline V-gene IGKV3-20*01 combined with J-gene IGKJ1*01, all three light CDRs of pembrolizumab (Kabat definition) grafted; Whole antibody; also called Germline-1+ (pembrolizumab)
B7: pembrolizumab VH paired with germline IGKV7-3*01/IGKJ1*01 with the pembrolizumab light CDRs grafted (antibody, V domains shown)
VH: QVQLVQSGVEVKKPGASVKVSCKASGYTFTNYYMYWVRQAPGQGLEWMGGINPSNGGTNFNEKFKNRVTLTTDSSTTTAYMELKSLQFDDTAVYYCARRDYRFDMGFDYWGQGTTVTVSS
VL: DIVLTQSPASLAVSPGQRATITCRASKGVSTSGYSYLHWYQQKPGQPPKLLIYLASYLESGVPARFSGSGSGTDFTLTINPVEANDTANYYCQHSRDLPLTFGQGTKVEIK
notes: as the VH of m13 (native VH of pembrolizumab); germline V-gene IGKV7-3*01 combined with J-gene IGKJ1*01, all three light CDRs of pembrolizumab (Kabat definition) grafted; Whole antibody; also called Germline-3+ (pembrolizumab)
B8: pembrolizumab VH paired with germline IGKV3-11*01/IGKJ1*01 with the pembrolizumab light CDRs grafted (antibody, V domains shown)
VH: QVQLVQSGVEVKKPGASVKVSCKASGYTFTNYYMYWVRQAPGQGLEWMGGINPSNGGTNFNEKFKNRVTLTTDSSTTTAYMELKSLQFDDTAVYYCARRDYRFDMGFDYWGQGTTVTVSS
VL: EIVLTQSPATLSLSPGERATLSCRASKGVSTSGYSYLHWYQQKPGQAPRLLIYLASYLESGIPARFSGSGSGTDFTLTISSLEPEDFAVYYCQHSRDLPLTFGQGTKVEIK
notes: as the VH of m13 (native VH of pembrolizumab); germline V-gene IGKV3-11*01 combined with J-gene IGKJ1*01, all three light CDRs of pembrolizumab (Kabat definition) grafted; Whole antibody; also called Germline-2+ (pembrolizumab)

target: T1, TNF-α (Homo sapiens, UniProt P01375, biotinylated (said of the BLI experiment)); assay: ELISA; screening ELISA; antigen coated at 1 µg/mL (30 ng/well) in bicarbonate coating buffer on 384-well MaxiSorp overnight at 4°C; blocked with 4% milk in PBS; antibody at 1 µg/mL in PBS, 2 h at room temperature; goat anti-human IgG Fc-HRP, TMB, absorbance at 450 nm; settings: both partners purified
T1 construct: TNF-α, a pro-inflammatory cytokine, target of adalimumab; also called Purified TNF-α; biotinylated TNF-α; source: bought: Acro Biosciences (Cat #TNA-H82E3, Lot #BV2043-241DF11R8)
T1 sequence (P01375 77-233): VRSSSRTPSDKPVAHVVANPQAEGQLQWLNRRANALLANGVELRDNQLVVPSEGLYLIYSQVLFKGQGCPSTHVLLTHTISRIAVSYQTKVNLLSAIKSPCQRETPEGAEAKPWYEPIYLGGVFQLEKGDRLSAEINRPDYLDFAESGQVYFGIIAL

Binding result, binds:
B1, B2, B3, B4

target: T2, Human PD-1 (human, UniProt Q15116); assay: as above; settings: both partners purified
T2 construct: programmed death receptor 1 (PD-1), human, target of pembrolizumab; The printed catalogue number is that of the TNF-α product, probably a slip; also called programmed death receptor 1; Target (pembrolizumab panels); source: bought: Acro Biosciences (printed Cat #TNA-H82E3, Lot #BV2043-241DF1-1R8)
T2 sequence (Q15116 25-170): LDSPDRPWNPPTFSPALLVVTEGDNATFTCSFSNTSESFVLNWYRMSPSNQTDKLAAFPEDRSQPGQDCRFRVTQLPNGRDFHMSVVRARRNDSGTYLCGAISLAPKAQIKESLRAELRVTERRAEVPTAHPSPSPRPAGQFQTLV

Binding result, binds:
B5, B6, B7, B8
